Measurements published in patent US20190270817A1.

Key:
IL-21R on Hut78 T cells = IL-21R on Hut78 T cells (UniProt Q9HBE5); test: cell-based or functional assay
[1] = target: human IL-21R-FLAG-His (monovalent) (human) (UniProt Q9HBE5); test: Octet, immobilized monovalent IL-21R-his
[2] = target: cynomolgus monkey IL-21R-FLAG-His (monovalent) (cynomolgus monkey) (UniProt G7Q0S8); test: Octet, immobilized monovalent IL-21R-his
IL-21R-Fc = IL-21R-Fc (UniProt Q9HBE5); test: ForteBio Octet
[3] = target: human PD-1(1-170)-FLAG-His (human) (UniProt Q15116); test: Octet, fusion amine-coupled to tips
human PD-1(1-170)-FLAG-His (human), sequence (Q15116 21-170 limits assumed): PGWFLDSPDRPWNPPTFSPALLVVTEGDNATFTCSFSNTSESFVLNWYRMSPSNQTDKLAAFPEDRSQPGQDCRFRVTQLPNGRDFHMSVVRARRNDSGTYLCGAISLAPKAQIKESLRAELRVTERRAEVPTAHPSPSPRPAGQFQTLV

[4] = target: cynomolgus monkey PD-1(1-167)-FLAG-His (cynomolgus monkey); test: Octet, fusion amine-coupled to tips
cynomolgus monkey PD-1(1-167)-FLAG-His (cynomolgus monkey), sequence (Q15116 other isoform, or with tags, fused parts or gaps): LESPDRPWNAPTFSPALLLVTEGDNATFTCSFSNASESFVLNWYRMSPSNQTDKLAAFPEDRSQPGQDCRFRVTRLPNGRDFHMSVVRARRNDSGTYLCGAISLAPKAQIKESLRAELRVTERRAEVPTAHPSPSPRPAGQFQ

cynoPD1(1-167)-Flag-His = cynoPD1(1-167)-Flag-His (UniProt Q15116); test: Octet
cynoPD1(1-167)-Flag-His, sequence (Q15116 other isoform, or with tags, fused parts or gaps): as above

[5] = target: human PD-1 on cells (human) (UniProt Q15116); test: cell-based or functional assay
human PD-1 on cells (human), sequence (Q15116 25-288 limits assumed): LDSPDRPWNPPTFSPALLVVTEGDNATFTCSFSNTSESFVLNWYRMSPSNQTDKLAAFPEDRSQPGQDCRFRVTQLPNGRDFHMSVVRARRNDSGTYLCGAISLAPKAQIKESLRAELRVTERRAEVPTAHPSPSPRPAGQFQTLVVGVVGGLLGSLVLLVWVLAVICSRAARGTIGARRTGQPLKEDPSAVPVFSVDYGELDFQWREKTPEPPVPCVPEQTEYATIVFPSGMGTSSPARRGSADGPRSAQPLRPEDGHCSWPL

[6] = target: human PD-1(1-170)-FLAG-His (human) (UniProt Q15116); test: not stated in the table (Octet per Example 11)
[7] = target: human IL-21R, recombinant soluble (FLAG-His or Fc, not stated which) (human) (UniProt Q9HBE5); test: not stated in the table (Octet per Example 11)
human IL-21R, recombinant soluble (FLAG-His or Fc, not stated which) (human), sequence (Q9HBE5 20-232 limits assumed): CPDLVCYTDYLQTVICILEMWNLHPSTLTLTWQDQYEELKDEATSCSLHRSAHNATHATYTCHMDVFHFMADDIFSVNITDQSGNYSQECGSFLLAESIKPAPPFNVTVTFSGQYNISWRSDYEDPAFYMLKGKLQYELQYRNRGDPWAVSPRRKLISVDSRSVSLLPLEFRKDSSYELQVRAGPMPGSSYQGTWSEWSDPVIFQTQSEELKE

IL-21R-Fc, sequence (Q9HBE5 20-232 limits assumed): as above
human IL-21R-FLAG-His (monovalent) (human), sequence (Q9HBE5 20-232 limits assumed): as above
IL-21R on Hut78 T cells, sequence (Q9HBE5 20-538 limits assumed): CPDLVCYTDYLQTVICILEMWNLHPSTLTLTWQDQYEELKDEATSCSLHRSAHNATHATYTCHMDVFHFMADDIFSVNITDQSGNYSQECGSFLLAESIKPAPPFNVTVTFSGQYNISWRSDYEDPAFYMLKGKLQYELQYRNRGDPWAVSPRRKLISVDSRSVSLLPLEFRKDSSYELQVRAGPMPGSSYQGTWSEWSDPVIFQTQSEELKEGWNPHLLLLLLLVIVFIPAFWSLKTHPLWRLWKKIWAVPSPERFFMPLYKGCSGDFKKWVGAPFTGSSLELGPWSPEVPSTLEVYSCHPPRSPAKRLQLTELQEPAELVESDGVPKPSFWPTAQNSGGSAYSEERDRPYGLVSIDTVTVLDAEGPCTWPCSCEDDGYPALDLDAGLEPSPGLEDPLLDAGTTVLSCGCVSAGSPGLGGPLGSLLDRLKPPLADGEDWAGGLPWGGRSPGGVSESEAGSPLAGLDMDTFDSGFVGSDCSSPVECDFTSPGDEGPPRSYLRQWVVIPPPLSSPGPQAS

| Kd (IL-21R-Fc) [nM] | Substance | also measured |
| --- | --- | --- |
| 0.42 | PD-1 mAb x IL-21 Q12D (Mutant 37) (from UniProt Q9HBE4 30-162) |  |
| 0.237 | PD-1 mAb x IL-21 R5A (Mutant 100) (from UniProt Q9HBE4 30-162) |  |
| 12 | PD-1 mAb x IL-21 R76D (Mutant 78) (from UniProt Q9HBE4 30-162) |  |
| 1.23 | PD-1 mAb x IL-21 P78D (Mutant 96) (from UniProt Q9HBE4 30-162) |  |
| 0.253 | PD-1 mAb x IL-21 K73G (Mutant 66) (from UniProt Q9HBE4 30-162) |  |
| 0.163 | PD-1 mAb x IL-21 K75G (Mutant 75) (from UniProt Q9HBE4 30-162) |  |
| 11 | PD-1 mAb x IL-21 L13D (Mutant 43) (from UniProt Q9HBE4 30-162) |  |
| 4.55 | PD-1 mAb x IL-21 I66G (Mutant 52) (from UniProt Q9HBE4 30-162) |  |
| 6.6 | PD-1 mAb x IL-21 D15S (Mutant C12) (from UniProt Q9HBE4 30-162) |  |
| 0.6 | PD-1 mAb x IL-21 R76M (Mutant 85) (from UniProt Q9HBE4 30-162) |  |
| 0.658 | PD-1 mAb x IL-21 K77G (Mutant 94) (from UniProt Q9HBE4 30-162) |  |
| 7.95 | PD-1 mAb x IL-21 Q116E (Mutant C21) (from UniProt Q9HBE4 30-162) |  |
| 0.172 | PD-1 mAb x IL-21 K73I (Mutant 68) (from UniProt Q9HBE4 30-162) |  |
| 0.4 | PD-1 mAb x IL-21 R76P (Mutant 87) (from UniProt Q9HBE4 30-162) |  |
| 4 | PD-1 mAb x IL-21 I8S (Mutant 20) (from UniProt Q9HBE4 30-162) |  |
| 0.518 | PD-1 mAb x IL-21 S70G (Mutant 58) (from UniProt Q9HBE4 30-162) |  |
| 0.166 | PD-1 mAb x IL-21 I14S (Mutant c5) (from UniProt Q9HBE4 30-162) |  |
| 0.439 | PD-1 mAb x IL-21 D15A (Mutant c6) (from UniProt Q9HBE4 30-162) |  |
| 0.17 | PD-1 mAb x IL-21 Q19D (Mutant 46) (from UniProt Q9HBE4 30-162) |  |
| 7.11 | PD-1 mAb x IL-21 I66P (Mutant 53) (from UniProt Q9HBE4 30-162) |  |
| 0.265 | PD-1 mAb x IL-21 S80G (Mutant 98) (from UniProt Q9HBE4 30-162) |  |
| 40 | PD-1 mAb x IL-21 R9G (Mutant 24) (from UniProt Q9HBE4 30-162) |  |
| 0.9 | PD-1 mAb x IL-21 R65P (Mutant 50) (from UniProt Q9HBE4 30-162) |  |
| 0.0395 | PD-1 mAb x IL-21 V69D (Mutant 54) (from UniProt Q9HBE4 30-162) |  |

More lines, now with the values behind:

| Substance | Kd (IL-21R-Fc) [nM] | also measured |
| --- | --- | --- |
| anti-PD-1 mAb fused to an IL-21 (R5Q:R76E) mutein (monomer) |  | pSTAT3 EC50, Hut78/PD-1 (IL-21R on Hut78 T cells): 341 pM |
| anti-PD-1 mAb x IL-21 R5Q:R76E homodimer fusion |  | Kd [1]: > 300 nM; Kd [2]: > 300 nM |
| PD-1 mAb x IL-21 D15V (Mutant C14) (from UniProt Q9HBE4 30-162) | 5.47 |  |
| PD-1 mAb x IL-21 R76Y (Mutant 92) (from UniProt Q9HBE4 30-162) | 0.265 |  |
| PD-1 mAb x IL-21 Q12N (Mutant 39) (from UniProt Q9HBE4 30-162) | 0.38 |  |
| PD-1 mAb x IL-21 I66D (Mutant 51) (from UniProt Q9HBE4 30-162) | 0.677 |  |
| anti-PD-1 mAb x IL-21 R5E:R76A homodimer fusion |  | Kd [3]: 7 nM; Kd [4]: 5.9 nM; pSTAT3 EC50, Hut78 PD-1+ T cells (n1) (IL-21R on Hut78 T cells): 0.00198 µM; pSTAT3 EC50, Hut78 PD-1+ T cells (n2) (IL-21R on Hut78 T cells): 0.00149 µM; pSTAT3 EC50, Hut78 PD-1- T cells (n1) (IL-21R on Hut78 T cells): > 1 µM; pSTAT3 EC50, Hut78 PD-1- T cells (n2) (IL-21R on Hut78 T cells): > 1 µM; Kd [1]: > 300 nM; Kd [2]: > 300 nM |
| PD-1 mAb x IL-21 Q12E (Mutant 38) (from UniProt Q9HBE4 30-162) | 0.031 |  |
| PD-1 mAb x IL-21 K73S (Mutant 72) (from UniProt Q9HBE4 30-162) | 0.167 |  |
| PD-1 mAb x IL-21 D15N (Mutant C10) (from UniProt Q9HBE4 30-162) | 11 |  |
| PD-1 mAb x IL-21 K73A (Mutant 63) (from UniProt Q9HBE4 30-162) | 0.0525 |  |
| PD-1 mAb x IL-21 K72P (Mutant 62) (from UniProt Q9HBE4 30-162) | 8.96 |  |
| PD-1 mAb x IL-21 R76A (Mutant 77) |  | Kd [1]: > 10 nM; Kd [2]: > 10 nM |
| PD-1 mAb x IL-21 S70P (Mutant 59) (from UniProt Q9HBE4 30-162) | 10 |  |
| anti-TIGIT mAb fused to an IL-21 (R5Q:R76E) mutein (dimer) |  | pSTAT3 EC50, Hut78/TIGIT (IL-21R on Hut78 T cells): 1390 pM |
| PD-1 mAb x IL-21 K73D (Mutant 64) (from UniProt Q9HBE4 30-162) | 0.435 |  |
| PD-1 mAb x IL-21 R9A (Mutant 21) (from UniProt Q9HBE4 30-162) | 6.84 |  |

| Substance | Kd (IL-21R-Fc) [nM] | also measured |
| --- | --- | --- |
| PD-1 mAb x IL-21 R11D (Mutant c1) (from UniProt Q9HBE4 30-162) | 0.411 |  |
| PD-1 mAb x IL-21 K72D (Mutant 60) (from UniProt Q9HBE4 30-162) | 0.235 |  |
| PD-1 mAb x IL-21 Q12T (Mutant 41) (from UniProt Q9HBE4 30-162) | < 0.26 |  |
| PD-1 mAb x IL-21 R9D (Mutant 22) (from UniProt Q9HBE4 30-162) | > 100 |  |
| Nivo huIgG1 mAb |  | Kd (cynoPD1(1-167)-Flag-His): 3.5 nM |
| PD-1 mAb x IL-21 K72G (Mutant 61) (from UniProt Q9HBE4 30-162) | 0.25 |  |
| PD1 mAb x R9E:R76A monomer (chimera, mouse IgG1 constant region, C-terminal human IL-21 R9E:R76A) |  | Hut78 PD1 (+) Interpolated EC50 (IL-21R on Hut78 T cells): 1.97 nM; Hut78 PD-1 (-) Interpolated EC50 (IL-21R on Hut78 T cells): > 1000 nM; PD-1 reporter Interpolated EC50 [5]: 1.61 nM; Kd [6]: 2.6 nM; Kd [7]: > 300 nM |
| PD-1 mAb x IL-21 R76E (Mutant 79) |  | Kd [1]: > 10 nM; Kd [2]: > 10 nM |
| anti-PD-1 mAb x IL-21 R9E:R76A homodimer fusion |  | Kd [3]: 8.9 nM; Kd [4]: 5.9 nM; pSTAT3 EC50, Hut78 PD-1+ T cells (n1) (IL-21R on Hut78 T cells): 0.0166 µM; pSTAT3 EC50, Hut78 PD-1- T cells (n1) (IL-21R on Hut78 T cells): > 1 µM; pSTAT3 EC50, Hut78 PD-1- T cells (n2) (IL-21R on Hut78 T cells): > 1 µM; Kd [1]: > 300 nM; Kd [2]: > 300 nM |
| PD-1 mAb x IL-21 R76N (Mutant 86) (from UniProt Q9HBE4 30-162) | 15.3 |  |
| PD-1 mAb x IL-21 R9Y (Mutant 35) (from UniProt Q9HBE4 30-162) | 0.63 |  |
| PD-1 mAb x IL-21 S70Y (Mutant 101) (from UniProt Q9HBE4 30-162) | 0.237 |  |
| PD-1 mAb x IL-21 D15E (Mutant c7) (from UniProt Q9HBE4 30-162) | 0.249 |  |
| PD-1 mAb x IL-21 S113K (Mutant C18) (from UniProt Q9HBE4 30-162) | 8.1 |  |
| PD-1 mAb x IL-21 D15M (Mutant c9) (from UniProt Q9HBE4 30-162) | 0.163 |  |
| PD-1 mAb x IL-21 I16D (Mutant 44) (from UniProt Q9HBE4 30-162) | 0.094 |  |
